Data as given in ChEMBL document CHEMBL1122856, “Study on the inhibition of adenosine deaminase” (J Med Chem, 1985).

Substrate: Cc1c([C@@H](C)O)ncn1C1O[C@H](CO)[C@@H](O)[C@H]1O
Description: Ability to inhibit the deamination of adenosine by calf intestine adenosine deaminase expressed as Km

B1: Adenosine deaminase (Bos taurus), P56658 (protein)
chain: MAQTPAFNKPKVELHVHLDGAIKPETILYYGRKRGIALPADTPEELQNIIGMDKPLSLPEFLAKFDYYMPAIAGCREAVKRIAYEFVEMKAKDGVVYVEVRYSPHLLANSKVEPIPWNQAEGDLTPDEVVSLVNQGLQEGERDFGVKVRSILCCMRHQPSWSSEVVELCKKYREQTVVAIDLAGDETIEGSSLFPGHVKAYAEAVKSGVHRTVHAGEVGSANVVKEAVDTLKTERLGHGYHTLEDATLYNRLRQENMHFEVCPWSSYLTGAWKPDTEHPVVRFKNDQVNYSLNTDDPLIFKSTLDTDYQMTKNEMGFTEEEFKRLNINAAKSSFLPEDEKKELLDLLYKAYGMPSPASAEQCL
Km: 39 µM
